Source: PMC10663500

Target: toripalimab Fab, wild type
Experiment: SPR; Carterra LSA; Fab from the ammonium sulfate precipitate of the culture supernatant immobilised on a NiHC200M chip; hPD-1 (1-1024 nM) or mPD-1-Fc (4-1024 nM) as analyte, fourfold dilution series, no regeneration; HBS-EP pH 7.4, 25 °C; medians over the spots of a construct, KD = koff/kon

Chain of toripalimab Fab, wild type (heavy, as listed by the source, chain 1 of 2): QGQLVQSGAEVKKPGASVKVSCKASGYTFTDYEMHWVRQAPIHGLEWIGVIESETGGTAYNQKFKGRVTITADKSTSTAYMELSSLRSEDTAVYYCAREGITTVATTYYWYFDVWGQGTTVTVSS
Chain of toripalimab Fab, wild type (light, as listed by the source, chain 2 of 2): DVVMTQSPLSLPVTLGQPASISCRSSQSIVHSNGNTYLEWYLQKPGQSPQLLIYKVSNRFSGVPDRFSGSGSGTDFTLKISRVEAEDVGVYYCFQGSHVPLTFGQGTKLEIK
Chain of mouse programmed cell death protein 1 Fc fusion protein (mPD-1-Fc), mPD-1 C60S (aa 25-167) (Q02242 25-167, stated change not applied): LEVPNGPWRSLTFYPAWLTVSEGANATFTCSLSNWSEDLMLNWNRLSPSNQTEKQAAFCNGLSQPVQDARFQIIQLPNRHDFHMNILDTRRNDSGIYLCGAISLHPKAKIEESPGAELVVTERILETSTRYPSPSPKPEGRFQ

## mouse programmed cell death protein 1 Fc fusion protein (mPD-1-Fc), mPD-1 C60S (aa 25-167) (from UniProt Q02242 25-167)
  Kd: 136 nM
  koff: 0.00548 s⁻¹
  kon: 40300 M⁻¹ s⁻¹
